Experimental data taken from patent US20220127354A1 (Amgen, published 2022).

T1: ckCDH19(1-43)::FLAG::ckCDH19(44-776) (construct J, Ck EC1-5) (chicken)
T1 construct: the entry holds leader (1-43), FLAG and ckCDH19(44-776); leader left out; also called chicken Cadherin19
T1 chain: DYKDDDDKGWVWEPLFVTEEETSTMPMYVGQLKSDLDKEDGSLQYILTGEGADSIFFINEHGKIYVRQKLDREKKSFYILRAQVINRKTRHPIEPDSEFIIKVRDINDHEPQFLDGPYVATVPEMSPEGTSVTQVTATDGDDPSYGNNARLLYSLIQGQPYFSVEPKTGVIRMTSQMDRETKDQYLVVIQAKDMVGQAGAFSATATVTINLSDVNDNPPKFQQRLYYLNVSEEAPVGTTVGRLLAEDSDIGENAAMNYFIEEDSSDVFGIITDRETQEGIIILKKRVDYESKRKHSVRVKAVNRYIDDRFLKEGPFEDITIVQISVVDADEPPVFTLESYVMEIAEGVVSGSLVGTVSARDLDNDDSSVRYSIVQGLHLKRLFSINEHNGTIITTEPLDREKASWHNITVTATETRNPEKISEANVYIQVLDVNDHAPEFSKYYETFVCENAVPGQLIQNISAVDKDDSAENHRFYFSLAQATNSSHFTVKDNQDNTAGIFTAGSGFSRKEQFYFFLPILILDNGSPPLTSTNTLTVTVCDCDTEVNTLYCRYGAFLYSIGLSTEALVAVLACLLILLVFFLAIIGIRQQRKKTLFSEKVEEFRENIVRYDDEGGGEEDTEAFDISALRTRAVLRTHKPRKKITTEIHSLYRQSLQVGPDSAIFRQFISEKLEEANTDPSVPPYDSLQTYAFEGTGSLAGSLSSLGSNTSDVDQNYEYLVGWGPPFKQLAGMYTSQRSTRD

T2: ckCDH19(1-43)::FLAG::ckCDH19(44-141)::huCDH19(142-249)::ckCDH19(250-776) (construct L, Hu EC2) (human/chicken chimera)
T2 construct: leader (1-43 of the entry) left out
T2 chain: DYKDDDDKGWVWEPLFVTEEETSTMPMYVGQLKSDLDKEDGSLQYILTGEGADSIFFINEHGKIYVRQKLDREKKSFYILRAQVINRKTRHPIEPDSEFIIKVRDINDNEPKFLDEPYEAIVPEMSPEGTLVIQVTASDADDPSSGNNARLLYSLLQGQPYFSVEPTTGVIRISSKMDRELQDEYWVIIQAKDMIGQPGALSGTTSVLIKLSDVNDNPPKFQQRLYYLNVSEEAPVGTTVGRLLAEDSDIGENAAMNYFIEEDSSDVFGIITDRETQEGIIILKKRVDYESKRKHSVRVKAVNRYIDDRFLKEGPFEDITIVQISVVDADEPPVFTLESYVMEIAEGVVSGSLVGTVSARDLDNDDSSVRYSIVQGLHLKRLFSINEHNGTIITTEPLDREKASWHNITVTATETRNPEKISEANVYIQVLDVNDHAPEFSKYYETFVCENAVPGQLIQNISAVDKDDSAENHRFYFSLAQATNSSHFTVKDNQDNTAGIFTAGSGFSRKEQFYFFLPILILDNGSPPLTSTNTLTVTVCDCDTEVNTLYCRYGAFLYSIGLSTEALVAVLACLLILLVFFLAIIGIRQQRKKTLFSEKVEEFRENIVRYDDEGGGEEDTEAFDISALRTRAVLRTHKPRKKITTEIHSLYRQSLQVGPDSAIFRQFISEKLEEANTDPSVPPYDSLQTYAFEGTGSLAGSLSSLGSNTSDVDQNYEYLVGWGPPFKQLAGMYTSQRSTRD

T3: ckCDH19(1-43)::FLAG::ckCDH19(44-468)::huCDH19(464-772) (construct O, Hu EC5) (human/chicken chimera)
T3 construct: leader (1-43 of the entry) left out
T3 chain: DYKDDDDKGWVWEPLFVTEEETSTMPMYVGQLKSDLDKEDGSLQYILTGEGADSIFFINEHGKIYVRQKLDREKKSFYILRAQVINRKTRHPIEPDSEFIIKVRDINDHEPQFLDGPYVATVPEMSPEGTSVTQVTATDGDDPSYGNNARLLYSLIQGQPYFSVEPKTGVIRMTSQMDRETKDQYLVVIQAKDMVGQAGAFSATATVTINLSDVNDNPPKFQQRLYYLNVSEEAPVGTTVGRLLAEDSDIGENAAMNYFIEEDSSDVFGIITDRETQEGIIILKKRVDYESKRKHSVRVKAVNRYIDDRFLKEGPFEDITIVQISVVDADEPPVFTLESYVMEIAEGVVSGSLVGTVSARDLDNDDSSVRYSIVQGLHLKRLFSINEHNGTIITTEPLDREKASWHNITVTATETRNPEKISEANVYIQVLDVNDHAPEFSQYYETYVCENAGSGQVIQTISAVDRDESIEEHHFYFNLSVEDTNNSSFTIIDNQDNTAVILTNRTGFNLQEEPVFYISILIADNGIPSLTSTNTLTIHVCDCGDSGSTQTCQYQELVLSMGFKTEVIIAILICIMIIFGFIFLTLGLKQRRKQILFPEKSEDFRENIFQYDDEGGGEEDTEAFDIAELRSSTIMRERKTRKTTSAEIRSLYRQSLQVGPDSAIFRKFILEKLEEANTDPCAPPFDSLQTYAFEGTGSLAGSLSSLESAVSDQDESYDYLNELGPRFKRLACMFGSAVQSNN

T4: muCDH19(44-770) with Flag tag (construct I, Mu EC1-5) (mouse)
T4 construct: leader left out; the entry starts at residue 44; also called Mo EC1-5; mouse Cadherin19
T4 chain: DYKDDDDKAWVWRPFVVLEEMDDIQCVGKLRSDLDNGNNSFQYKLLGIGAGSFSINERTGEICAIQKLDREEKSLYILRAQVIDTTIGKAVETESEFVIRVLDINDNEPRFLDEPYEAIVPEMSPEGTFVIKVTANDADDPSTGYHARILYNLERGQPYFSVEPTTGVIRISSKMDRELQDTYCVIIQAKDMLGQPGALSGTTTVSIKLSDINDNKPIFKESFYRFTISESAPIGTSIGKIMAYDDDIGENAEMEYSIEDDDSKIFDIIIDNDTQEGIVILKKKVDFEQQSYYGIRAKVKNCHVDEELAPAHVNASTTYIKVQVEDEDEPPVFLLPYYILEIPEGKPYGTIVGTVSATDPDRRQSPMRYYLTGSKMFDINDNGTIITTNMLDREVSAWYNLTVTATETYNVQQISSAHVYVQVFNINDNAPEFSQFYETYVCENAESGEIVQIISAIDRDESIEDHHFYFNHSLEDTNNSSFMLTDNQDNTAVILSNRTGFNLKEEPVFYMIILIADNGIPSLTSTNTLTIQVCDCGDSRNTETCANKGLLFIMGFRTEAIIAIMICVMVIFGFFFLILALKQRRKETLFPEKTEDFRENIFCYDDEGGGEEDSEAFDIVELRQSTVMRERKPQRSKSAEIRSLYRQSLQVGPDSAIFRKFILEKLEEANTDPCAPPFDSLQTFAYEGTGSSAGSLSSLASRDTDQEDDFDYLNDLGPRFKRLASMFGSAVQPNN


Legend:
[1] = target: huCDH19(44-772) with Flag tag (construct A, Hu EC1-5) (human, UniProt Q9H159 44-772); assay: flow cytometry, transfected 293T cells
Source text: (§1) The experiment included assaying the anti-CDH19 antibodies against mouse Cadherin19 to determine suitability for binning on these human/mouse chimeras.

[2] = target: T5, muCDH19(44-139)::huCDH19(142-364)::muCDH19(363-770) with Flag tag (construct E, Hu EC2-3) (human/mouse chimera); assay: flow cytometry, transfected 293T cells
T5 construct: leader left out; the entry starts at residue 44; also called C137847
Source text: as §1

[3] = target: T6, muCDH19(44-247)::huCDH19(250-364)::muCDH19(363-770) with Flag tag (construct F, Hu EC3) (human/mouse chimera); assay: flow cytometry, transfected 293T cells
T6 construct: leader left out; the entry starts at residue 44; also called C137911
Source text: as §1

[4] = target: T1, ckCDH19(1-43)::FLAG::ckCDH19(44-776) …; assay: flow cytometry, transfected 293T cells, 2 mM CaCl2
Procedure: (§2) The experiment included assaying a subset of anti-CDH19 antibodies against chicken Cadherin19 to determine suitability for binning on these human/chicken chimeras.
(§3) The following binding assay was completed in presence of 2 mM CaCl₂). […] Cells were then washed one time and the amount of cell associated Alexa647-labelled Ab was quantitated by flow cytometry. The experiments included mock transfected controls.

[5] = target: T7, huCDH19(1-43)::FLAG::hu(44-141)::ckCDH19(142-776) (construct K, Hu EC1) (human/chicken chimera); assay: flow cytometry, transfected 293T cells, 2 mM CaCl2;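 also: binding of Alexa647-labelled anti-CDH19 antibodies to cells expressing human/chicken CDH19 chimeras, read as cell-bound fluorescence, with mock-transfected cells as controls, n.d. meaning not determined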
T7 construct: leader (1-43 of the entry) left out; also called huCDH19(44-141)::ckCDH19(142-776)
Procedure: as §2, §3

[6] = target: T2, ckCDH19(1-43)::FLAG::ckCDH19(44-141)::hu …; assay: flow cytometry, transfected 293T cells, 2 mM CaCl2
Procedure: as §2, §3

[7] = target: T3, ckCDH19(1-43)::FLAG::ckCDH19(44-468)::hu …; assay: flow cytometry, transfected 293T cells, 2 mM CaCl2
Procedure: as §2, §3

[8] = target: T4, muCDH19(44-770) with Flag tag …; assay: flow cytometry, transfected 293T cells, 2 mM CaCl2
Procedure: as §3

| Binder | binding result [1] | binding result [2] | binding result [3] | binding result [4] | binding result [5] | binding result [6] | binding result [7] | binding result [8] |
| --- | --- | --- | --- | --- | --- | --- | --- | --- |
| hu anti-<huCDH19> 4A2 (1-472)(Q17E,H47P) VH::huIgG1z + 4A2 (1-236)(N30Q,T102A) VL::huKLC (Ab ID 14026) (antibody, V domains shown, Engineered variant of 4A2; the entries already carry the changes; Bin 4) VH: QVQLQESGPGLVKPSETLSLTCTVSGGSISSSGYYWSWIRQPPGKGLEWIGYIYYTGSAYYNPSLKSRVTISVDTSKNQFSLKLSSVTAADTAVYYCARDGSSGWYFQYWGQGTLVTVSS VL: EIVLTQSPGTLSLSPGERATLSCRASRQISSSYLAWYQQKPGQAPRLLIYGPSSRATGIPDRFSGSGSGTDFTLTISRLEPEDFAVYYCQQYGSSFTFGPGTKVDIKR | binds | binds | binds |  |  |  |  |  |
| hu anti-<huCDH19> 4B10 (1-471)(R17G) VH::huIgG1z + 4B10 (1-236)(H45Q,A90T) VL::huKLC (Ab ID 14054) (antibody, V domains shown, Engineered variant of 4B10; the entries already carry the changes; Bin 4) VH: QVQLVESGGGVVQPGGSLRLSCAASGFTFSSYDMHWVRQAPGKGLEWVAVISYDGTNEYYADSVKGRFTISRDTSKNTLYLQMNSLRAEDTAVYYCARERYFDWSFDYWGQGTLVSVSS VL: EIVLTQSPGTLSLSPGERATLSCRASQSVSNTYLAWYQQRPGQAPRLLIYGASSRATGIPDRFSGSGSGTDFTLTISSLEPEDFAVYYCQQYSNSWTFGQGTKVEIKR | binds | binds | binds |  |  |  |  |  |

Second part, the binder after the results:

| binding result [1] | binding result [2] | binding result [3] | binding result [4] | binding result [5] | binding result [6] | binding result [7] | binding result [8] | Binder |
| --- | --- | --- | --- | --- | --- | --- | --- | --- |
|  |  |  | no binding (tested: 5 ug/ml) | binds | no binding (tested: 5 ug/ml) | no binding (tested: 5 ug/ml) | no binding (tested: 5 ug/ml) | hu anti-<huCDH19> 26F12.1 (Ab ID 13881) (antibody, human IgG1, lambda, V domains shown, huIgG1z / huLLC-C2; Bin 2; also called 27B3) VH: QVQLVQSGAEVKKPGASVKVSCKASRYTFTNYYMSWVRQAPGQGLEWMGIINPSGGDSTYAQKFQGRLTMTGDTSTSTVYMELSSLRSEDTAVYYCARGGIQLWLHFDYWGQGTLVTVSS VL: not shown |
|  |  |  | no binding (tested: 5 ug/ml) | binds | no binding (tested: 5 ug/ml) | no binding (tested: 5 ug/ml) |  | hu anti-<huCDH19> 17H8.2 (Ab ID 13874) (antibody, human IgG1, kappa, V domains shown, huIgG1z / huKLC; Bin 3; also called 23B6; 28D10) VH: QVQLQESGPGLVKPSETLSLTCTVSGGSINSYYWSWIRQPPGKGLEWIGYIYYIGSTNYNPSLKSRVTISVDTSKNQFSLKLSSVTAADTALYYCARDSRYRSGWYDAFDIWGQGTMVTVSS VL: DIVLTQSPGTLSLSPGERATLSCRASQSVAGSYLAWYQQKPGQAPRLLISGASSRATGIPDRFSGSGSGTDFTLTISRLEPEDFAVYYCQQYGKSPITFGQGTRLEMKG |
